Source: publication PMC12041258
Like-named read-outs stand apart in the source and are kept apart here.

Tests used:
[1] = target: C. crescentus DriD(78-327) (C. crescentus); assay: SEC
[2] = target: C. crescentus DriD(78-327) (C. crescentus); assay: SEC; remark: listed apart in the source
[3] = target: C. crescentus DriD DNABD, DriD(1-70) (C. crescentus); assay: MST

Q: How did the stoichiometry N [1] turn out when “C. crescentus DriD(78-327) (domain or fragment)” was run?
A: 2

Q: And the stoichiometry N [2]?
A: 2

Q: How did the Kd [3] turn out when “His-tag free C. crescentus DriD(78-327) (domain or fragment)” was run?
A: 15 µM
